One substance from patent EP1655308B1, “Adducts of soluble ovalbumin with trivalent iron polyalcohol complexes and method to produce them” (Tedec-Meiji Farma, S.A., priority 2004, dated 2006) can be followed below.

This data set in a line: Solubility of the lyophilised adduct at 1 %. Format: physicochemical. The following applies: lyophilised powder, 1 % solution. The protocol:
a) Iron - manitol complex: 31.5 g of FeCl3·6H2O are dissolved jointly with 7.9 g of manitol in 400 ml of water. A solution of 18 g of NaOH in 48 ml of water is added under vigorous stirring. It is heated to 95° C, letting it spontaneously cool down to ambient temperature. b) Treated ovalbumin: 37.50 g of commercial ovalbumin in powder form are dispersed under vigorous stirring in 180 ml of water. A solution of 30 g of NaOH in 550 ml of water is heated separately to 65° C. The protein dispersion is added to the alkaline solution and is digested at 65° C for 15 minutes, with the pH being subsequently adjusted to a value between 8.5 - 10 with 6M HCl. While keeping the solution at 50° C and pH 8.5 - 10, Esperase® (NOVO-NORDISK) is added in a quantity of 1 ‰ of the initial albumin (37.5 mg), proteolytically digesting it, under gentle stirring, for 2 hours at 50° C without any pH correction. Once this time has elapsed, the spontaneous pH is 8.5. The solution is heated to 80° C in order to deactivate the remaining enzymatic activity, the pH is adjusted to 10 with 10M NaOH and, when the temperature goes down to 65° C, 2 ml/l of 30 % w/v H2O2 are added. […]

For the substance “Adduct between treated ovalbumin and iron (III) - manitol complex [Example 1]”, the 1 % solubility result is on record as “limpid”.
